Test results: patent US20260242458A1 (NOVAROCK BIOTHERAPEUTICS, published 2026)
Like-named read-outs stand apart in the source and are kept apart here.

Key:
[1] = molecular target: T1, recombinant human IL-25 protein (human, UniProt Q9H293 33-177); experiment: ELISA, IL-25 coated, goat anti-human IgG-HRP detection
T1 construct: Bought (Acro, catalog no: IL5-H4221) for ELISA; also called hIL-25; IL-17E
T1 sequence: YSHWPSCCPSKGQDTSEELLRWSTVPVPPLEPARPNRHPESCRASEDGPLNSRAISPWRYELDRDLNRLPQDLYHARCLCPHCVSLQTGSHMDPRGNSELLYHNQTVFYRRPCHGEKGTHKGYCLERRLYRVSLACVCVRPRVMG
Method: (§1) In this study, the ability of five disclosed anti-IL-25 antibodies (IL25Ab1 to Ab5) binding to both human and mouse IL-25 was evaluated using ELISA. Briefly, recombinant human IL-25 protein (Acro, catalog no: IL5-H4221, lot no: 401-20CNF1-UT) or recombinant mouse IL-25 protein (Sino Biological Inc, catalog no: 50138-M07H, lot no: LC15AP0607) was directly coated to ELISA plates, respectively. Recombinant antibodies were then added to the plates followed by detection using goat-anti-human IgG-HRP (Jackson ImmunoResearch, catalog no: 109-035-098, Lot no: 157400). After the addition of ABTS (Moss Inc., catalog no: ABTS-1000, Lot no: 03086202) substrate, ELISA plates were read using an ELISA plate reader (Bioteck).

[2] = molecular target: T2, recombinant mouse IL-25 protein (mouse, UniProt Q8VHH8 17-169); experiment: as above
T2 construct: Bought (Sino Biological Inc, catalog no: 50138-M07H)
T2 sequence: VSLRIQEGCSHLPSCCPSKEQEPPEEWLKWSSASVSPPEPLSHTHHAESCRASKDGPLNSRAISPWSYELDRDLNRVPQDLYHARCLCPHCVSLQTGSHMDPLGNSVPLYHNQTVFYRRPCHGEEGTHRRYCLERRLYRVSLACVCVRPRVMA
Method: as §1

[3] = molecular target: T1, recombinant human IL-25 protein; experiment: cell-based or functional assay
[4] = molecular target: T1, recombinant human IL-25 protein; experiment: cell-based or functional assay; remark: listed apart in the source
[5] = molecular target: T3, recombinant cynomolgus IL-25 protein (cynomolgus monkey, UniProt Q9H293 33-177 (human entry), limits assumed); experiment: ELISA: recombinant cynomolgus IL-25 coated on the plate, detection with goat-anti-human Kappa Light Chain antibody HRP, ABTS, OD 405
T3 construct: Bought (Sino Biological Inc, customized order); also called cyno IL-25
T3 chain: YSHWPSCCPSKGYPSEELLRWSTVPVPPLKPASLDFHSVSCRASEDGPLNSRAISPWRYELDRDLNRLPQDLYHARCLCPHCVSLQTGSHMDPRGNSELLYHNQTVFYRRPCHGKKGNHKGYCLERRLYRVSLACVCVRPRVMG
Method: In another study, the ability of five disclosed anti-IL-25 antibodies (IL25Ab1 to Ab5) binding to cynomolgus IL-25 was evaluated using ELISA. Briefly, recombinant human IL-25 protein (Acro, catalog no: IL5-H4221, lot no: 401-20CNF1-UT) or recombinant cynomolgus IL-25 protein (Sino Biological Inc, catalog no: customized order, lot no: MB17MA2715) was directly coated to ELISA plates, respectively. Recombinant antibodies were then added to the plates followed by detection using goat-anti-human Kappa Light Chain antibody HRP (Novus, catalog no: NBP1-75064, Lot no: 68-188-010920). After the addition of ABTS (Moss Inc., catalog no: ABTS-1000, Lot no: 03086202) substrate, ELISA plates were read using an ELISA plate reader (Bioteck).

[6] = molecular target: T1, recombinant human IL-25 protein; experiment: BLI (Octet), antibody captured on anti-human Fc biosensor, human IL-25 as analyte
Method: The binding kinetics of the disclosed anti-IL-25 antibodies to recombinant human IL-25 was determined by Octet® Bio-Layer Interferometry (BLI) systems by Sartorius. The assay uses anti-IL-25 monoclonal antibodies as the ligand and recombinant human IL-25 protein as the analyte.
Briefly, the assays were performed by first capturing 5 μg/ml of anti-IL-25 antibodies using anti-human Fc Octet biosensors. The mAb-captured biosensors were then submerged in wells containing serially diluted human IL-25 for 4-6 minutes, followed by a 10-15 minute dissociation time. The binding sensorgrams were collected and analyzed by the Octet Data Analysis software.

[7] = molecular target: T1, recombinant human IL-25 protein; experiment: cell-based or functional assay; remark: listed apart in the source
[8] = molecular target: T1, recombinant human IL-25 protein; experiment: cell-based or functional assay; remark: listed apart in the source
[9] = molecular target: T3, recombinant cynomolgus IL-25 protein; experiment: ELISA, IL-25 coated, goat anti-human kappa light chain-HRP detection
Method: (§2) In this study, the ability of three humanized anti-IL-25 antibodies generated in hIgG1 (IL25Ab6 to Ab8) and hIgG1 YTE formats (IL25Ab9 to Ab11) binding to both human, mouse and cynomolgus IL-25 was evaluated using ELISA. Briefly, recombinant human IL-25 protein (Acro, catalog no: IL5-H4221, lot no: 401-20CNF1-UT), recombinant mouse IL-25 protein (Sino Biological Inc, catalog no: 50138-M07H, lot no: LC15AP0607) or recombinant cynomolgus IL-25 protein (Sino Biological Inc, catalog no: customized order, lot no: MB17MA2715) was directly coated to ELISA plates, respectively. Recombinant antibodies were then added to the plates followed by detection using goat-anti-human Kappa Light Chain antibody HRP (Novus, catalog no: NBP1-75064, Lot no: 68-188-010920). After the addition of ABTS (Moss Inc., catalog no: ABTS-1000, Lot no: 03086202) substrate, ELISA plates were read using an ELISA plate reader (Bioteck).

[10] = molecular target: T1, recombinant human IL-25 protein; experiment: as above
Method: as §2

[11] = molecular target: T2, recombinant mouse IL-25 protein; experiment: as above
Method: as §2

[12] = molecular target: T1, recombinant human IL-25 protein; experiment: cell-based or functional assay; remark: listed apart in the source
[13] = molecular target: T1, recombinant human IL-25 protein; experiment: cell-based or functional assay; remark: listed apart in the source

B1: IL25Ab2 (antibody, V domains shown)
VH: QVTLKESGPGILQPSQTLSLTCSFSGFSLSTSGMGVGWIRQPSGKGLEWLAHIWWDDVKQYNPALQSRLTISKDTSSSQVFLKIASVDIADIATYYCARIGPVHHGFPYWGQGALVTVSS
VL: QIVLTQSPAIMSAFPGEKVTMSCSASSSVNYMYWHQQKPGSSPRLLIYDTSNLASGVPVRFSGSGSGTSYSLTISRMEAEDAATYYCQQWTSYPPMYTFGGGTKLEIK
EC50 [1]: 17 pM
EC50 [2]: 12 pM
IC50, IL-25 induced CXCL1 production in HT-29 cells [3]: 89 pM
IC50, IL-25 induced IL-5 production in human PBMC [4]: 140 pM
EC50 (read off the curve) [5]: ~100 pM
Kd [6]: < 1 pM
koff [6]: < 1e-07 s⁻¹
kon [6]: 1.36e+06 M⁻¹ s⁻¹
IC50, IL-25 induced NF-kB signaling (SEAP) in HEK-Blue IL-17 reporter cells [7]: 68 pM

B2: IL25Ab3 (antibody, V domains shown)
VH: EVQLQQSGPELVKPGGSVRISCKASGYSFTGYTMNWVKQSHGKNLEWIGLINPDNGGTSHKQRFMGKATLTVDKSSSTAYMELLSLTSEDSAVYYCAREGYYGPSPFHHYAMDYWGQGTSVTVSS
VL: DIQMTQTTSSLSASLGDRVTISCSASQDISNYLNWYQQKPDGTIKLLIYYTSTLHSGVPSRFSGSGSGTDYSLTISNLEPEDIATYYCQQYSKLPYTFGGGTKLEIK
notes: detected with anti-human IgG or anti-human kappa reagents; also called anti-IL-25Ab3; mouse origin of anti-IL-25 specific antibody
IC50, IL-25 induced NF-kB signaling (SEAP) in HEK-Blue IL-17 reporter cells [8]: 37 pM
EC50 [1]: 22 pM
EC50 [2]: 13 pM
IC50, IL-25 induced CXCL1 production in HT-29 cells [3]: 67 pM
EC50 [9]: 364 pM
EC50 [10]: 506 pM
EC50 [11]: 390 pM
IC50, IL-25 induced IL-5 production in human PBMC [12]: 302 pM
IC50, IL-25 induced IL-5 production in human PBMC [4]: 160 pM
IC50, IL-25 induced CXCL1 production in HT-29 cells [13]: 144 pM
EC50 (read off the curve) [5]: ~100 pM
Kd [6]: < 1 pM
koff [6]: < 1e-07 s⁻¹
kon [6]: 875000 M⁻¹ s⁻¹
IC50, IL-25 induced NF-kB signaling (SEAP) in HEK-Blue IL-17 reporter cells [7]: 49 pM

B3: IL25Ab5 (antibody, V domains shown)
VH: QVQLQQWGAGLLKPSETLSLTCAVYGGSFSAYYWSWIRQSPGKGLEWIGEINHGGNTNYSPSLKSRVTISVDTSKSQFSLKLSSVTAADTAAYYCARGPGITSWAFDFWDQGTMVTVSS
VL: DIQMTQSPSSLSASVGDRVTIACQASQDINNYLNWYQQKPGKAPKLLIYDASNLETGVPSRFSGNGSGTDFTFTISSLQPEDIATFYCQQYDTLPYTFGQGTKLEIR
EC50 [1]: 10 pM
EC50 [2]: 35 pM
IC50, IL-25 induced CXCL1 production in HT-29 cells [3]: 77 pM
IC50, IL-25 induced IL-5 production in human PBMC [4]: 260 pM
EC50 (read off the curve) [5]: ~200 pM
Kd [6]: < 1 pM
koff [6]: < 1e-07 s⁻¹
kon [6]: 2.48e+06 M⁻¹ s⁻¹
IC50, IL-25 induced NF-kB signaling (SEAP) in HEK-Blue IL-17 reporter cells [7]: 61 pM

B4: IL25Ab1 (antibody, V domains shown)
VH: QVQLKESGPGLVAPSQSLSITCTVSGFSLTDYGINWVRQPPGKGLEWLGMIWGDGVTHYNSVLKSRLSISKDNSMSQIFLKMNSLQTDDTARYYCARTLFYDGTLYYYAMDYWGQGTSVTVSS
VL: QIVLTQSPATMSASPGEKVTMTCSASSSVTYMYWYQQKTGSSPRLLIYDTPNLASGVPVRFSGSGSGTSYSLTISRVEAEDAATYYCQQWSSYPHTWTFGGGTKLEIK
EC50 [1]: 20 pM
EC50 [2]: 15 pM
IC50, IL-25 induced CXCL1 production in HT-29 cells [3]: 71 pM
IC50, IL-25 induced IL-5 production in human PBMC [4]: 120 pM
EC50 (read off the curve) [5]: ~100 pM
Kd [6]: < 1 pM
koff [6]: < 1e-07 s⁻¹
kon [6]: 1.25e+06 M⁻¹ s⁻¹
IC50, IL-25 induced NF-kB signaling (SEAP) in HEK-Blue IL-17 reporter cells [7]: 52 pM

B5: IL25Ab4 (antibody, V domains shown)
VH: QVTLKESGPGILQPSQTLSLTCSFSGFSLSTSGMGVSWIRQPSGKGLEWLAHIYWDDAKFYNPSLKSRVTISKDTSRNQVFLRITSVDTADIATYYCARRGYDNYGGFVDWGQGTLVTVSS
VL: ENVLIQSPAIMSASLGEKVTMSCRASSSVNYMYWYQQKSDAPPKLWIYYTSNLAPGVPGRFSGSGSGNSYSLTISSMEGEDAATYYCQQFTSYPYMYTFGGGTKLEIK
EC50 [1]: 34 pM
EC50 [2]: 26 pM
IC50, IL-25 induced CXCL1 production in HT-29 cells [3]: 76 pM
IC50, IL-25 induced IL-5 production in human PBMC [4]: 150 pM
EC50 (read off the curve) [5]: ~100 pM
Kd [6]: < 1 pM
koff [6]: < 1e-07 s⁻¹
kon [6]: 1.2e+06 M⁻¹ s⁻¹
IC50, IL-25 induced NF-kB signaling (SEAP) in HEK-Blue IL-17 reporter cells [7]: 73 pM
